Data reported in article PMC8423902 (Cell Reports, 2021).

Biological target: trimeric SARS-CoV-2 ectodomain (S 6P trimer, residues 16-1206) (SARS-CoV-2, early isolate GenBank …, UniProt P0DTC2, stabilised)
Test: cryo-EM structure

B1: C118 Fab (Fab, V domains shown)
VH: QVQLVESGGGVVQPGRSLRLSCAASGFTFSNYAMHWVRQAPGKGLEWVAVISYDGSNKYYADSVKGRFTISRDNSKNTLYLQMNSLRAEDTAIYYCASGYTGYDYFVRGDYYGLDVWGQGTTVTVSS
VL: QPVLTQSPSASASLGASVKLTCTLSSGHSSYAIAWHQQQPEKGPRYLMKLNTDGSHSKGDGIPDRFSGSSSGAERYLTISSLQSEDEADYYCQTWGTGILVFGGGTKLTVL
  binding result: binds
